Experimental findings from patent US20030059763A1, “Immunoglobulin class switch recombination” (priority 2001, published 2003) are described below.

Experiment [1] deals with Ramos 2G6 cells stably transfected with XF-1. Put plainly: Substrate switch recombination (SSR), GFP positive cells by FACS, construct XF-1. In kind it is cell-based, human. To be noted: XF-1 cells; cytokines alone or in combination with CD40 mAb. An excerpt: (§1) The backbone of our switch substrate contained 1.6 Kb of the human Sμ (Zhang and Cheah, 2000, supra) and 1.8 Kb of the human Sγ2 regions (Mills et al, 1995, supra) under the transcriptional control of the CMV (pCMV) and the SV40 promoters (pSV40) respectively. A RSV LTR enhancer/promoter (pRC/RSV-LTR) and a GFP gene under the control of an internal ribosome entry site (IRES) were interposed between Sμ and Sγ2 in the reverse transcriptional orientation (FIG. 1A). Thus, the GFP gene will not be expressed within the gennline configuration of the construct. Detection of switch recombination between the Sμ and Sγ2 in the construct is based on the mechanism of the deletional recombination that excises and deletes the intervening DNA sequences between the Sμ and Sγ2. This excised sequence including the IRES-GFP expression unit forms an extrachromosomal circular DNA that is now under the transcriptional control of the pRSV-LTR (FIG. 1A). The RNA splice donor and acceptor sites permit uniform expression of the GFP from the excised circular DNA (FIG. 1A). Since the GFP gene is expressed only after the switch recombination (recombination or inversion, FIG. 1A) between the Sμ and Sγ2, switch recombination can be monitored in the cultured living cells in “real-time” by fluorescence microscopy. Furthermore, the frequency of switch recombination can be quantitatively measured by flow cytometry.
(§2) To test the potential roles of DNA sequences that may control or regulate the processes involved in switch recombination, the DNA fragments of interest were engineered into the basic switch construct (XF-1) to generate a series of modified switch constructs as diagrammed in the FIG. 1B. All the modified constructs were transfected into Ramos 2G6 cells as stable constructs to establish the switch cell lines. The integrity and copy number of the constructs were determined by Southern Blot analysis and PCR. Only subclones that contain a single copy of the construct were used. To distinguish the substrate switch recombination described here from switch recombination occurring at the intrinsic IgH loci (e.g., CSR), the former is abbreviated as SSR.
(§3) The human B lymphoma cell line Ramos 2G6 (ATCC, Rockville pike, Md.) and its subclones, L cells stably transfected with human CD40L (CD154) provided by D. Rawlings, UCLA), and CHO cells stably transfected with murinc CD40L (Immunex Inc, Seattle, Wash.) were maintained and cultured in complete PRMI 1640 (Zhang et al, 1994, supra). One million cells in 0.2 ml were transfected with 10 μg plasmid DNA by electroporation (200V, 0.975 μF). Genicitin (G418) was added to cultures two days later for clonal selection and the levels increased over four week to concentrations that were previously determined by dosage titration for the different cell lines.
(§4) The expression of GFP in cell lines stably transfected with switch vectors following various stimulated culture conditions was measured by either single- or dual-color flow cytometry (FACS Core laboratory, UCLA). The data were analyzed with FCS express software (De Novo software Inc, Thornhill, Ontario, Canada).

A further experiment deals with Ramos 2G6/XF-5a.1 cells. Put plainly: Substrate switch recombination (SSR), GFP positive cells by FACS, construct XF-5a. To be noted: for effect on SSR: XF-5a / XF-5a.1 cells, antibodies 1 μg/ml, cytokines 5 ng/ml alone or with CD40 mAb. The experiment is classed as cell-based, human.
From the text: pXF-5a: A PCR amplified 356 bp fragment containing Iε exon and its 5′ promoter region (pIε) was inserted into Xho I and Xba I sites in pXF-1.
as §1, §2, §3, §4
(In general: Flow cytometry measures light scatter and fluorescence of single cells or particles in a stream.)

Experiment [2] addresses CD40 on human B lymphoma cell line Ramos 2G6 (stably transfected with switch constructs XF-1 / XF-5a) (human) (UniProt P25942). Put plainly: cell-based or functional assay.
The test system of experiment [3] is plasmid p77D3.11 (human Sμ and Sε). The experiment in a line: In vitro (cell-free) switch recombination assay, white vs blue colonies. The experiment is classed as biochemical. Particulars: added to the recombination reaction; EDTA 10 mM.
Description: Nuclear cell extracts from primary human B cells and cell lines were prepared by the Nonidet P-40 (NP-40) lysis method (Dyer and Herzog, BioTechniques 19:192-195 (1995)) with important modifications. Briefly, 10^8 (10^7 for cell lines) purified fresh human tonsillar B lymphocytes (Zhang et al., 1994, supra) were harvested following culture for 3 days with or without 0.1 μg/ml of anti-CD40 monoclonal antibody G28.5 (Zhang et al., 1994, supra) and were lysed with 1 ml of sucrose buffer (0.32 M sucrose, 3 mM CaCl2, 2 mM magnesium acetate, 0.1 mM EDTA, 10 mM Tris-HCl, pH 8.0, 1 mM DTT, 0.5 mM PMSF) containing 0.5% (vol/vol) NL-40 (BRL, Gaithersburg, Mich.). The cells were lysed immediately and the intact nuclei were pelleted by centrifugation at 2400 rpm/5 min at 4° C. The nuclei were washed twice (10^8 B cells/ml) with ice-cold sucrose buffer lacking NP-40. The pelleted nuclei were suspended in 50 μl/10^8 B cells with low-salt buffer (20 mM Hepes, pH 7,6, 25% glycerol, 1.5 mM MgCl2, 20 mM KCl, 0.2 mM EDTA, 0.5 mM DTT, 0.5 mM PMSF) followed by slowly adding 1 vol of high-salt buffer (20 mM Hepes, pH 7.6, 25% glycerol, 1.5 mM MgCl2, 800 mL KCl, 0.2 mM EDTA, 0.5 mM DTT, 0.5 mM PMSF) at 4° C. for 30 min with agitation for nuclear protein extraction. […] The concentration of the nuclear protein was determined by Bradford assay. […]
The subject of experiment [4] is Ramos 2G6 cells stably transfected with XF-2b. The experiment in a line: Substrate switch recombination (SSR), construct XF-2b. The experiment is classed as cell-based, human. Particulars: XF-2b cells.
From the text: pXF-2b: The CMV promoter in pXF-2a was deleted by removal of the Ase I and Xho I fragment.
as §2
The human B lymphoma cell line Ramos 2G6 (ATCC, Rockville pike, Md.) and its subclones, L cells stably transfected with human CD40L (CD154) provided by D. Rawlings, UCLA), and CHO cells stably transfected with murinc CD40L (Immunex Inc, Seattle, Wash.) were maintained and cultured in complete PRMI 1640 (Zhang et al, 1994, supra). […] Genicitin (G418) was added to cultures two days later for clonal selection and the levels increased over four week to concentrations that were previously determined by dosage titration for the different cell lines. […]

Experiment [5] deals with Iε-Cε1′ transcripts in Ramos 2G6/XF-5a.1 cells. Put plainly: RT-PCR of processed Iε-Cε1′ transcripts from the construct. In kind it is cell-based, human. To be noted: 48 hours, IL-4 1 ng/ml, CD40 mAb 1 μg/ml. How it is done: The cells were cultured in the presence of IL-4 (1 ng/ml) and CD40 mAb (1 μg/ml) for 48 hours following by RNA preparation and RT-PCR. Total RNA (2 μg) was used for reverse-transcription and cDNA derived from 0.2 μg of RNA was subject to PCR amplification using the primers diagrammed in the FIG. 7B. The ratio of SSR from the cultures (assayed at day 5) is shown in the bottom. […] Diagrams of the formation of the “germ line” transcripts Iε-Cε1′ from the transgenes and the Iε-Cε2 from the endogenous IgH ε locus are shown in the FIG. 7B. The arrows represent the positions of the primers used for PCR.
PCR and […] (RT-PCR) were performed as described previously (Zhang et al, 1994, supra; Zhang and Cheah, 2000, supra). For amplification of the Sμ-Sγ2 products, genomic DNA from the stably transfected Ramos 2G6 cells was amplified with PCR Kit for GC-rich DNA (Clonetech, Palo Alto, Calif.). […]
The role of transcriptional activity vs. SSR was further investigated using Ramos 2G6/XF-5a.1. As the XF-5a construct contains the Iε exon and a Cε1 exon (referred to as Cε1′) that is able to form processed transcripts through RNA splicing, transcriptional activity of the construct can be semi-quantitatively determined by measuring the Iε-Cε1′ transcripts by RT-PCR (FIG. 7). […]

CD40 on human B lymphoma cell line Ramos 2G6 (stably transfected with switch constructs XF-1 / XF-5a) (human), sequence (P25942 21-277): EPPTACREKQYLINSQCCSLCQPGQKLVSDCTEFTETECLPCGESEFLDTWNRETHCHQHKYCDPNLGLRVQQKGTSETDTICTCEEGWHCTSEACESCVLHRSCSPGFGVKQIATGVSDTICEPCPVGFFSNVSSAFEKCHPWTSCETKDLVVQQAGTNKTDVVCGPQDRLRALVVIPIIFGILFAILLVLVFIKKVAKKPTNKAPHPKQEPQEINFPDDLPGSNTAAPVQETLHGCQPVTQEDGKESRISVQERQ

As for IL-5: cytokine, in experiment [1], the “effect on SSR frequency” value is reported as “did not increase”. The “effect on SSR” value with Ramos 2G6/XF-5a.1 cells is reported as “did not increase”.

Take Anti-CD40 mAb G28.5 (antibody): in experiment [2], the GFP expression level (percent of cells), Ramos 2G6/XF-5a.1, in the presence of IL-4 is above 50%; the SSR frequency (percent GFP positive cells), Ramos 2G6/XF-5a.1, without IL-4 was found to be 3.2%; the SSR rate (percent GFP positive cells), Ramos 2G6 with construct XF-1 was 1.9%.

Consider `O=C(O)CN(CCN(CC(=O)O)CC(=O)O)CC(=O)O` [EDTA], for which the “effect on recombination activity” value in experiment [3] is “almost completely blocked the activity”.

For TGF-β, the “effect on SSR frequency” value in experiment [1] is reported as “did not increase”. Moreover, in the experiment on Ramos 2G6/XF-5a.1 cells, the “effect on SSR” value was “did not increase”.

As for IL-6: cytokine, in experiment [1], the “effect on SSR frequency” value is “did not increase”. The “effect on SSR” value in the experiment on Ramos 2G6/XF-5a.1 cells was “did not increase”.

B1: IL-4: cytokine purchased from R & D system (protein, UniProt P05112 25-153, looked up)
Interleukin-4: HKCDITLQEIIKTLNSLTEQKTLCTELTVTDIFAASKNTTEKETFCRAATVLRQFYSHHEKDTRCLGATAQQFHRHKQLIRFLKRLDRNLWGLAGLNSCPVKEANQSTLENFLERLKTIMREKYSKCSS
For B1, the “effect on SSR frequency” value in experiment [1] is recorded as “marginal effects”. Also, in the experiment with Ramos 2G6/XF-5a.1 cells, the “effect on SSR” value is listed as “limited effects”. Moreover, the “GFP expression, plateau of IL-4 dose-response” value with Ramos 2G6/XF-5a.1 cells (XF-5a cells, in the presence of CD40 mAb (1 μg/ml), plateau at 3 ng/ml IL-4) is on record as “around 50%”. Moreover, the “SSR” value in experiment [4] is listed as “efficient SSR did not result”. Besides, in experiment [5], the “change of level of processed Iε-Cε1′ transcripts over pCMV-driven level” value was “minimally increased”.

B2: IFN-γ: cytokine (protein, UniProt P01579 24-161, looked up)
Interferon gamma: QDPYVKEAENLKKYFNAGHSDVADNGTLFLGILKNWKEESDRKIMQSQIVSFYFKLFKNFKDDQSIQKSVETIKEDMNVKFFNSNKKKRDDFEKLTNYSVTDLNVQRKAIHELIQVMAELSPAAKTGKRKRSQMLFRG
On to B2, for which the “effect on SSR frequency” value in experiment [1] was “did not increase”. Further, in the experiment with Ramos 2G6/XF-5a.1 cells, the “effect on SSR” value is recorded as “did not increase”.

B3: IL-10: cytokine (protein, UniProt P22301 19-178, looked up)
Interleukin-10: SPGQGTQSENSCTHFPGNLPNMLRDLRDAFSRVKTFFQMKDQLDNLLLKESLLEDFKGYLGCQALSEMIQFYLEEVMPQAENQDPDIKAHVNSLGENLKTLRLRLRRCHRFLPCENKSKAVEQVKNAFNKLQEKGIYKAMSEFDIFINYIEAYMTMKIRN
In the case of B3, in experiment [1], the “effect on SSR frequency” value was “did not increase”. In the experiment with Ramos 2G6/XF-5a.1 cells, the “effect on SSR” value is “did not increase”.
